Patent US5434073

Legend:
[1] = molecular target: human thrombin (Sigma) (human) (UniProt P00734)
[2] = molecular target: plasminogen (Sigma P-7397)

hirudin-IEGR-hirudin fusion protein
specific activity in anti-thrombin units (inhibition of thrombin catalysed hydrolysis of CHROMOZYM TH) [1]: 588 U/mg

recombinant hirudin sample
specific activity in anti-thrombin units (inhibition of thrombin catalysed hydrolysis of CHROMOZYM TH) [1]: 6600 U/mg

thrombin cleavable streptokinase-streptokinase fusion protein
streptokinase activity by the S2251 chromogenic assay [2]: 18400 u/ml
